Measured values from article PMC12990809.

Key:
Assay in all cases: pulldown
[1] = target: T1, mex-5 (Caenorhabditis elegans) (UniProt Q9XUB2); details: 20 nM protein, 1.5 uM RNA pool; 20 mM HEPES pH 7.8, 70 mM KCl, 10 mM NaCl, 10% glycerol, 2 mM DTT, 0.1 ug/uL BSA; 30 min, 4 C (protocol of this paper; not …); cited from earlier work
T1 sequence: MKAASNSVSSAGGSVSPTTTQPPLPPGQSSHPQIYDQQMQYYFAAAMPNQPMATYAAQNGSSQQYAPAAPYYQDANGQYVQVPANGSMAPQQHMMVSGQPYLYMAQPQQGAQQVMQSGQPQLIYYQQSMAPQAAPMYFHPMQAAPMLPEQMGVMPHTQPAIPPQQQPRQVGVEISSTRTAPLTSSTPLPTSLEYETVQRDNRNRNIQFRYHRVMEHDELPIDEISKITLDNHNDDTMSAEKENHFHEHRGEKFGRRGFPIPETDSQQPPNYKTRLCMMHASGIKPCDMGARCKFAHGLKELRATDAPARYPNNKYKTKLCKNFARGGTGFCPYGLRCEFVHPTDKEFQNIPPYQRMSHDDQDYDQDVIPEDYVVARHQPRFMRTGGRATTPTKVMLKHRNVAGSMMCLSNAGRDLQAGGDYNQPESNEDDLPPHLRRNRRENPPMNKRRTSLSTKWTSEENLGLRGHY

[2] = target: T2, Tb927.6.4960 Q72H;T102A;A103T (Trypanosoma brucei) (UniProt Q586G8); details: 20 nM protein, 1.5 uM RNA pool; 20 mM HEPES pH 7.8, 70 mM KCl, 10 mM NaCl, 10% glycerol, 2 mM DTT, 0.1 ug/uL BSA; 30 min, 4 C
T2 sequence: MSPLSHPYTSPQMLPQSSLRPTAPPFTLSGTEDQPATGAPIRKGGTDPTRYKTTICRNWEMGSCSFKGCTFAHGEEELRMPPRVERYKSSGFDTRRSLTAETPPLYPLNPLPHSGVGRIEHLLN

MSI1 (Homo sapiens) = MSI1 (Homo sapiens) (UniProt O43347); details: 20 nM protein, 1.5 uM RNA pool; 20 mM HEPES pH 7.8, 70 mM KCl, 10 mM NaCl, 10% glycerol, 2 mM DTT, 0.1 ug/uL BSA; 30 min, 4 C (protocol of this paper; not …); cited from earlier work
MSI1 (Homo sapiens), sequence (O43347 1-230): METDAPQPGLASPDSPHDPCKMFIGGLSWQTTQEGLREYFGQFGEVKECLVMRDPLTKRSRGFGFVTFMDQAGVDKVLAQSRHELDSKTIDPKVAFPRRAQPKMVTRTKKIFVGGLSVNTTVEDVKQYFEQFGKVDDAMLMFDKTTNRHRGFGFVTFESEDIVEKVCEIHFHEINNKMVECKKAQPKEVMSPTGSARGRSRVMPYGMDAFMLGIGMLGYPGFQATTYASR

[3] = target: T3, Tb927.5.810 S125L (Trypanosoma brucei) (UniProt Q57W26); details: 20 nM protein, 1.5 uM RNA pool; 20 mM HEPES pH 7.8, 70 mM KCl, 10 mM NaCl, 10% glycerol, 2 mM DTT, 0.1 ug/uL BSA; 30 min, 4 C
T3 sequence: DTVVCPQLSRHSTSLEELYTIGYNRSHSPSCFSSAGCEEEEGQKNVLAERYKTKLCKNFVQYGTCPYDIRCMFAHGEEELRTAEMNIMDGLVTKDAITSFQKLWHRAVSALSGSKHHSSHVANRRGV

tardbp (Danio rerio) = target: T4, tardbp (Danio rerio) (UniProt A0ACM8Q011); details: 20 nM protein, 1.5 uM RNA pool; 20 mM HEPES pH 7.8, 70 mM KCl, 10 mM NaCl, 10% glycerol, 2 mM DTT, 0.1 ug/uL BSA; 30 min, 4 C
T4 sequence: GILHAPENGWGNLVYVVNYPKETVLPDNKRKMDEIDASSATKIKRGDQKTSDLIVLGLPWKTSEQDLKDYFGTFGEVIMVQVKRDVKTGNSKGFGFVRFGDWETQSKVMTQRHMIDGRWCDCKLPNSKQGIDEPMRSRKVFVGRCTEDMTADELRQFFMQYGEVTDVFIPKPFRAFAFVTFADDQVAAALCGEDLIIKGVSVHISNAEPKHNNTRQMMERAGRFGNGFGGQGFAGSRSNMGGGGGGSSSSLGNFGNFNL

CELF4 (Homo sapiens) = CELF4 (Homo sapiens) (UniProt Q9BZC1); details: 20 nM protein, 1.5 uM RNA pool; 20 mM HEPES pH 7.8, 70 mM KCl, 10 mM NaCl, 10% glycerol, 2 mM DTT, 0.1 ug/uL BSA; 30 min, 4 C (protocol of this paper; not …); cited from earlier work
CELF4 (Homo sapiens), sequence (Q9BZC1 6-486): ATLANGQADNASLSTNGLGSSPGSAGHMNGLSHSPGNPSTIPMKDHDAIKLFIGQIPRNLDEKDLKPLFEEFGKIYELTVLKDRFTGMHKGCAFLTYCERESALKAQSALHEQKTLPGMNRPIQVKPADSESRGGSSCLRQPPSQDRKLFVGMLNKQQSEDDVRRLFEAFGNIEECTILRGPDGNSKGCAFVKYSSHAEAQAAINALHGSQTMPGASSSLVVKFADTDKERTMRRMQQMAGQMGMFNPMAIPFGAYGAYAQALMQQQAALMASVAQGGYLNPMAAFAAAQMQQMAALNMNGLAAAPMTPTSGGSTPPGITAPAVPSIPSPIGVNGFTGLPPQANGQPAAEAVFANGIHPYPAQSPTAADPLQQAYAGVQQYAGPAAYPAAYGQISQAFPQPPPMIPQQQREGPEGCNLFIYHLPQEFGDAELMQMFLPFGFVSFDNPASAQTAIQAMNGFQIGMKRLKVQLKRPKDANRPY

hnrnpa0b (Danio rerio) = hnrnpa0b (Danio rerio) (UniProt A0A8M1PHH6); details: 20 nM protein, 1.5 uM RNA pool; 20 mM HEPES pH 7.8, 70 mM KCl, 10 mM NaCl, 10% glycerol, 2 mM DTT, 0.1 ug/uL BSA; 30 min, 4 C
hnrnpa0b (Danio rerio), sequence (A0A8M1PHH6 entry or part of it): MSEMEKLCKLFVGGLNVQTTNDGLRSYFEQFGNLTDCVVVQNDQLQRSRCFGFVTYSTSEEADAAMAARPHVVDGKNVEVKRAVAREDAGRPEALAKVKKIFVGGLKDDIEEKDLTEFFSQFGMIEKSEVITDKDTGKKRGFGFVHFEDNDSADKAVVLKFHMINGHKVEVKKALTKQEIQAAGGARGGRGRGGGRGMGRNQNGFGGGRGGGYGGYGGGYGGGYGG

[4] = target: u2af2b (Tetraodon nigroviridis) (UniProt H3CRP7); details: 20 nM protein, 1.5 uM RNA pool; 20 mM HEPES pH 7.8, 70 mM KCl, 10 mM NaCl, 10% glycerol, 2 mM DTT, 0.1 ug/uL BSA; 30 min, 4 C
u2af2b (Tetraodon nigroviridis), sequence (H3CRP7 entry or part of it): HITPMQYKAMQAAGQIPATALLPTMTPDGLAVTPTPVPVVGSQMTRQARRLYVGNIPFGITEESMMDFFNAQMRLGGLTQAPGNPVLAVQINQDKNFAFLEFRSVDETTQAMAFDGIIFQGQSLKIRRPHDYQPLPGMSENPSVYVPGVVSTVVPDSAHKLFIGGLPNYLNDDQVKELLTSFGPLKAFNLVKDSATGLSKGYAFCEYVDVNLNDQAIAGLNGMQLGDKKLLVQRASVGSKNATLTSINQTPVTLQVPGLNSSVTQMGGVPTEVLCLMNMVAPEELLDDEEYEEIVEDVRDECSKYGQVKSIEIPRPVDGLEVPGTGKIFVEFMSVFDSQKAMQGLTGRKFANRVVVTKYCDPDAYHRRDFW

[5] = target: ENSTNIG00000011257 (Tetraodon nigroviridis) (UniProt H3D110); details: 20 nM protein, 1.5 uM RNA pool; 20 mM HEPES pH 7.8, 70 mM KCl, 10 mM NaCl, 10% glycerol, 2 mM DTT, 0.1 ug/uL BSA; 30 min, 4 C
ENSTNIG00000011257 (Tetraodon nigroviridis), sequence (H3D110 entry or part of it): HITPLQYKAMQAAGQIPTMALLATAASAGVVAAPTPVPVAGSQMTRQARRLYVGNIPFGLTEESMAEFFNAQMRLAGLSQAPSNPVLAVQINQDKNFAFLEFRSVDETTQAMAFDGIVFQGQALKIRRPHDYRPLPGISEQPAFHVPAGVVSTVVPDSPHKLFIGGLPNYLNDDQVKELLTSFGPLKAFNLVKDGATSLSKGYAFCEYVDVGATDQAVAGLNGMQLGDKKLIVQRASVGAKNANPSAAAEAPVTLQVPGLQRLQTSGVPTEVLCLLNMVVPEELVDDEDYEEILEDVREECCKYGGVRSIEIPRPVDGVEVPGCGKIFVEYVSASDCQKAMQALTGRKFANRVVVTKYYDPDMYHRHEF

[6] = target: T5, TIA1 (Tetraodon nigroviridis) (UniProt H3D1J1); details: 20 nM protein, 1.5 uM RNA pool; 20 mM HEPES pH 7.8, 70 mM KCl, 10 mM NaCl, 10% glycerol, 2 mM DTT, 0.1 ug/uL BSA; 30 min, 4 C
T5 sequence: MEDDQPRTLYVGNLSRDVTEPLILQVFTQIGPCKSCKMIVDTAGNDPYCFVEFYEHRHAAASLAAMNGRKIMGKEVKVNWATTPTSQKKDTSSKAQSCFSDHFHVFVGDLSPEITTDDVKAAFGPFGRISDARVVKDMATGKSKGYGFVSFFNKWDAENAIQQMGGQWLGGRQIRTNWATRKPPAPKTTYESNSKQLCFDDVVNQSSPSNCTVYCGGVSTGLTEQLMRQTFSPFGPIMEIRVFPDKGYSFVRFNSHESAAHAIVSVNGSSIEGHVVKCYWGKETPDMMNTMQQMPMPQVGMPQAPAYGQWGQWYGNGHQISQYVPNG

[7] = target: T6, tia1 (Tetraodon nigroviridis) (UniProt H3D7H4); details: 20 nM protein, 1.5 uM RNA pool; 20 mM HEPES pH 7.8, 70 mM KCl, 10 mM NaCl, 10% glycerol, 2 mM DTT, 0.1 ug/uL BSA; 30 min, 4 C
T6 sequence: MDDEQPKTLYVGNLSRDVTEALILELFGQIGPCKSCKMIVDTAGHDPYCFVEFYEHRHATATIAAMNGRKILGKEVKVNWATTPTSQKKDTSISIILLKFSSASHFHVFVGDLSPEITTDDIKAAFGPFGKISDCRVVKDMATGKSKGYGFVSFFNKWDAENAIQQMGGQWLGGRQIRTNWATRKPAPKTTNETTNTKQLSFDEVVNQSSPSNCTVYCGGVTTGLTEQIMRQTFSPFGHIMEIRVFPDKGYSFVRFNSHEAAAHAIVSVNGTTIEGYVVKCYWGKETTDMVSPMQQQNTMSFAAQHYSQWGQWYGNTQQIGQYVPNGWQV

[8] = target: T7, PUB1 (Saccharomyces cerevisiae) (UniProt P32588); details: 20 nM protein, 1.5 uM RNA pool; 20 mM HEPES pH 7.8, 70 mM KCl, 10 mM NaCl, 10% glycerol, 2 mM DTT, 0.1 ug/uL BSA; 30 min, 4 C
T7 sequence: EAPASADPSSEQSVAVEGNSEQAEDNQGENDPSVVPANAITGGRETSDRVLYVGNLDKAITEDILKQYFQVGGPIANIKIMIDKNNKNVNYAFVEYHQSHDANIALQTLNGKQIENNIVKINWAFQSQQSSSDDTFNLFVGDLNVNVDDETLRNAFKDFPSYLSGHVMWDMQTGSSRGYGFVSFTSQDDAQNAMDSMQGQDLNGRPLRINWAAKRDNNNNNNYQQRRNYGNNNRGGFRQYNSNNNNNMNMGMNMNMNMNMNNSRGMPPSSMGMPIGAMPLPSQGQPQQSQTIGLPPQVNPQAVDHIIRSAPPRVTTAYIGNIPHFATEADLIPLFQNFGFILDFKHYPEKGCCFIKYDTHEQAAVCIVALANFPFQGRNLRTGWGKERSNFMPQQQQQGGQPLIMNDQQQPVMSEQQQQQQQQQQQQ

For UAAUA [RNAcompete motif RNCMPT00039], the binding signal (z-score (mean of top ten 7-mers)) [1] is given as 18.

UAAUAA [RNAcompete motif RNCMPT00833] gave a binding signal (z-score (mean of top ten 7-mers)) [2] of 13.9.

In the case of UAGUUAG [RNAcompete motif RNCMPT00041], the binding signal (z-score (mean of top ten 7-mers)) (MSI1 (Homo sapiens)) is listed as 9.05.

With UAUUAUU [RNAcompete motif RNCMPT00837] the binding signal (z-score (mean of top ten 7-mers)) [3] was 13.

Work on UGAAUGA [RNAcompete motif RNCMPT01664] yielded a binding signal (z-score (mean of top ten 7-mers)) (tardbp (Danio rerio)) of 9.7.

In the case of UGUGUG [RNAcompete motif RNCMPT00004], the binding signal (z-score (mean of top ten 7-mers)) (CELF4 (Homo sapiens)) is given as 7.26.

UUAGAUAG [RNAcompete motif RNCMPT01667] gave a binding signal (z-score (mean of top ten 7-mers)) (hnrnpa0b (Danio rerio)) of 9.2.

UUUUUCC [RNAcompete motif RNCMPT01670] showed a binding signal (z-score (mean of top ten 7-mers)) [4] of 10.4.

UUUUUU [RNAcompete motif RNCMPT01671] gave a binding signal (z-score (mean of top ten 7-mers)) [5] of 12.3.

UUUUUU [RNAcompete motif RNCMPT01672] showed a binding signal (z-score (mean of top ten 7-mers)) [6] of 8.74.

Work on UUUUUUG [RNAcompete motif RNCMPT01674] yielded a binding signal (z-score (mean of top ten 7-mers)) [7] of 6.08.

UUUUUUU [RNAcompete motif RNCMPT01685] gave a binding signal (z-score (mean of top ten 7-mers)) [8] of 11.6.
